A short description of the series: label from the status in PepcDB records.

Turning to “MNIGLLEALDQLEEEKGISKEEVIPILEKALVSAYRKNFGNSKNVEVVIDRNTGNIKVYQLLEVVEEVEDPATQISLEEAKKIDPLAEVGSIVKKELNVKNFGRIAAQTAKQVLIQRIRELEKEKQFEKYSELKGTVTTAEVIRVMGEWADIRIGKLETRLPKKEWIPGEEIKAGDLVKVYIIDVVKTTKGPKILVSRRVPEFVIGLMKLEIPEVENGIVEIKAIAREPGVRTKVAVASNDPNVDPIGACIGEGGSRIAAILKELKGEKLDVLKWSDDPKQLIANALAPATVIEVEILDKENKAARVLVPPTQLSLAIGKGGQNARLAAKLTGWKIDIKPIMNL”, the protein production result is listed as “not failed”.

As to “MNIGNITISVIIPVYNASVTLPHCLESLHKQTYRNLELLFVDDCSTDESLYILTSYAEQFAEIDFTIRILQHERNRGVAAARNTALKCATGDYIYYVDADDSIEPHTLECLVNEINHKGLDIVGHEWYLTFNSNARYMKQPAYTTSVEALRKMMGGVMRWNLWLFLVRRSLYVENDIRFTEGLNMGEDMMVMMKLFICAGKVGIVHRPFYHYRQSNPESLTKIYSQEHIIQVANNVYEVEKYVNASAYADSLIEFIPFLKLNIKLPLLITDDKSHYEQWLECFPEANCYVMNNKLLPLRTRIIQWMAVKRYFILLRLYYRTVFKLVYGIIYKLEHHHHHH”, the protein production result was “failed”.

Take “MNIKINEKWREVKENCTVYALKNEEFPDSHVIVLNGFPLVEDKKLKDGDRIVFIKKGIMPNKEELEELMVSRHTPGIHEKLKRIKVLIAGCGGLGSNIAISLGRIGVGSISLVDFDIVEPSNLNRQQYYIEDIGEFKVTALKRNLIRINPFIKIEALNLKLSEDNMGILQGADIIIEAFDNPDYKALLANYVLGNMKDKFLISSSGMAGFYDSNLIKTKQITDKFYICGDLVNEAKEGCGLMAPRVAICANHMANLVIDIAINKIEFQK”: the protein production entry is “failed”.

In the case of “MNIKIVFYVLGGLLRLLGLLMIVPLGVAYYYGESLTPFLVSIVITVLTGLILLSYKTDEDWMRKEGFAIVALGWLAVAVFGAIPFMLDGISPLNSLFEAMSAFTTTGSTILTDIESHPKGILFWRSMMQWLGGMGIIVLFIAVLPKFGVAGRQLFRAEAPGPTEDKLKPRIRETAKILWMVYFVISFAEVVALLLAGLSLYDAITHTFTTMACGGFSPYGTSIEAFRSPLVEYIITFFMFVSGANFALHYRAIYVDKDFLLKDDEFRFYTALTLAATGLLTLLLYRDINTGFFDSFRLAIFQVVSIMTTTGFATADFNFWSDSAKMVLLLIMFVGGCAGSTGGGIKVVRILMLLRHGRVELFKSLHPRAIRGVKFNNKNVPDEVINSIFSFVVIYLFIFMSSALILAVLGMDIITSTTASIATLGNIGPGLNVVGPMGTFDPIPPLGKLILIANMWIGRLEVYTVIVLFTPEFWNK”, the protein production entry is recorded as “failed”.

“MNIKLYYVHDPMCSWCWGYKPTIEKLKQQLPGVIQFEYVVGGLAPDTNLPMPPEMQQKLEGIWKQIETQLGTKFNYDFWKLCTPVRSTYQSCRAVIAAGFQDSYEQMLEAIQHAYYLRAMPPHEEATHLQLAKEIGLNVQQFKNDMDGTLLEGVFQDQLSLAKSLGVNSYPSLVLQINDAYFPIEVDYLSTEPTLKLIRERIIENMSA”: the protein production result is on record as “not failed”.

In the case of “MNIMLFHSTYGLRPAVRAAADRLRAAGHEVWTPDLLEGRTFETVEEGMAFCDGIGKDELLKRAVLAAAPYSERGLVYAGFSLGASIAQTLALGDEKARGLLLLHGTSDIAESASVDELPVQLHVAEPDAFETDDWLGAWYLQLRRAGADVEVYRYAGAGHLYTDPDLPDYDAEAAEATWKVALGFLDSL”, the protein production entry was “not failed”.

“MNINENASQYIPHEAPMVFVDDLIEIFDQGALASLTIRPELLFCTAQGLPSWTSIELMAQTISAYSGRNGRQRGHTPRIGFLLGTRKLNLPVAFFELGSTLIIRIEQQYLHEGLGQFACEIEYQAHKISALLSVYEPTVDQDNKENT”: the protein production result is given as “failed”.

Take “MNIPTTTTKGEQAKSQLIAAALAQFGEYGLHATTRDIAALAGQNIAAITYYFGSKEDLYLACAQWIADFLGEKFRPHAEKAERLFSQPAPDRDAIRELILLACKNMIMLLTQEDTVNLSKFISREQLSPTSAYQLVHEQVIDPLHTHLTRLVAAYTGCDANDTRMILHTHALLGEVLAFRLGKETILLRTGWPQFDEEKAELIYQTVTCHIDLILHGLTQRSLD”: the protein production result was “not failed”.

As to “MNIQAIDTRHGTANQHSFSNGNCLPYTGVPFGMNFYAPQTTDQKGSWWFHPEDRTFQGYRVTHQPSPWMGDFSHLLMTPVSGSLSELSLFHAQSSYRPEESLFSPVEINLTQLRYQITSQLIPSMYGGILTIDYQQKDNHLLLTLPGRYQVKQLDDHQVAVKVINYSGCEDPDFSFYFVLHFEQPLTKWFAPSSGLEHHHHHH”, the protein production entry is “failed”.

Regarding “MNIQLSPLEARVIGCLIEKEVTTPDHYPLTLNSLTTACNQKSNREPVLNLSEAEVQDTVEGLIARRLVSDESSFNSRTSKYQHRFCNTEFGDLKLNQQELGLICCLLLRGAQTPGELRTRTNRLCTFTDVKETEAVLERLANRDSGALVVKLPREPGKRESRYHHLFCGEVDMAA”, the protein production result was “not failed”.

“MNISKEKVVDAISMVGYFVFAYVVMELLSINKYDWMMESGDSICSIPHQPLSNRILQAGVAALLLITPLFIALARNIFIKNRYKIAYYIVGILCIALYGGWLFLGRFALC”: the protein production result is “failed”.

Take “MNISSAQFIPGVHTVEEIEAEIHKNLHISKSCSYQKVPNSHKEFTKFCYEVYNEIKISDKEFKEKRAALDTLRLCLKRISPDAELVAFGSLESGLALKNSDMDLCVLMDSRVQSDTIALQFYEELIAEGFEGKFLQRARIPIIKLTSDTKNGFGASFQCDIGFNNRLAIHNTLLLSSYTKLDARLKPMVLLVKHWAKRKQINSPYFGTLSSYGYVLMVLYYLIHVIKPPVFPNLLLSPLKQEKIVDGFDVGFDDKLEDIPPSQNYSSLGSLLHGFFRFYAYKFEPREKVVTFRRPDGYLTKQEKGWTSATEHTGSADQIIKDRYILAIEDPFEISHNVGRTVSSSGLYRIRGEFMAASRLLNSRSYPIPYDSLFEEAPIPPRRQKKTDEQSNKKLLNETDGDNS”: the protein production result is on record as “not failed”.

In the case of “MNIVIVVFSTDEETLRKFKDIIKKNGFKVRTVRSPQELKDSIEELVKKYNATIVVVVVDDKEWAEKAIRFVKSLGAQVLIIIYDQDQNRLEEFSREVRRRGFEVRTVTSPDDFKKSLERLIREVGSLEHHHHHH”, the protein production result is “not failed”.

Regarding “MNKALIVILSTVALDAIGAGLIFPILPDILVEVTGGGDIGFLYGVMLGVFAVMQFVFSPILGALSDRFGRRPVLLLSLAGTLLDYLVMAFSPLGWVLVVGRAMAGITSANMAVASAYITDITPAEQRAQRFGTVGAVMSLGFIIGPVIGGVIGAWWLRAPFLVAALFNGLNLFVALFVLPESRKAGPGKFAFKELNPLAPLVWLWNFKPLLPLVTVSVVFGLVAAIPGTIWVLYGAERFGWDSVHMGLSLSVFGVSGALAQAFLVGPLSRRFGDLGTLMIGVGFDMLAYMLMAFANQSWMGYAVAPLFALGGVAMPALQSLVTSRVSDDQQGQLQGVLASLMSLAGIIGPVLTTAVFFSTKSIWIGTIWLVGAALYLLALPLFATVKTPKAVAA”, the protein production result is given as “failed”.

As to “MNKFFLESERLIIRPLEESDYDSWYTSFMNRGPSLTPFDDGILDMSMCDINWFKNLVNLQRKEWESDIVYIFGVFLKSGEHVGMLNIVTLARADMQWGELGYVFHNQFWSNGYAFESILALLNSTYEKLGFHHIEAQITPGNERSEKLVRRLGLTYETTRKDFSFENGKWTDKLIYSINLHNNNLE”, the protein production entry was “failed”.

Take “MNKGFILKALFLLCFLFSQTAQGQSFTPGEIWPDNHQVHINAHGGGILYENGTYYWFGEHKTEGEAGNLANVGVHCYSSDDLYHWKDCGIALSVIENDPGHPISKGCILERPKVIYNPLTKKYVMWFHLEPKGAGYSGALSGIALSDRVTGPYTFLKAVRPNAGSWPINVLPIHKTTRRPSAEEERQCTGGSLPAHPDSLNILGRDMEQGQMARDMNLFVDDDGKAYHIYSSEENSTLHIAELDPTYTGYTGKYIRVFINRFMEAPAMFKKDGNYYLIMSGCSGWNPNAARSAIASSIWGEWKELGNPCIGQDADLTFHSQSTYILPVQGKKNQFIYMGDRWTPQNAIDGRYIWLPIHFEGPKPIIEWKDSWTLD”: the protein production result was “failed”.
